The results in this text go back to US20090191186A1 (KALOBIOS PHARMACEUTICALS, published 2009).

Positions count from the first letter of the chain named.

The assay has as its target PcrV of the Type III secretion system on P. aeruginosa strain PA103 (Pseudomonas aeruginosa strain PA103). As to the kind of experiment: cell-based or functional assay.

B1: Fab SEQ ID NOs: 13, 4 (Fab, V domains shown)
VH: QVQLVESGGGVVQPGRSLRLSCAASGFTFSSYPLHWVRQAPGKGLEWVSFISYDGSEKYYASSVKGRFTISRDNSENTLYLQMNSLRPEDTAVYYCARNRGDIYYDFTYAMDIWGQGTMVTVSS
VL: DIQMTQSPSSLSASVGDRVTITCRASQSISRWVAWYQQRPGKAPNLLIYDASSLKSGVPSRFSGSGSGTEFTLTISSLQPEDIATYYCQQFWSTPYTFGQGTKLEIK
On to B1, for which the “IC50 (nM), TTSS-dependent cytotoxicity assay (PA103 killing of P3-X63-Ag8 cells)” value (from here on “IC50 (nM)”) worked out at 20 nM.

B2: Fab SEQ ID NOs. 24, 26 (Fab, V domains shown)
VH: B1 VH with Q1E, S31N, L34M, S49A, F50V, Y59W, S62D, E76K, Q82E, M119T
VL: DIQLTQSPSTLSASVGDSVTITCRASEGVDRWLAWYQQKPGRAPKLLIYDASTLQSGVPSRFSGSGSGTEFSLTISSLQPDDVATYYCQHFWGTPYTFGQGTKLEIK
Take B2: the “IC50 (nM)” value was determined as 25.5 nM.

B3: Fab SEQ ID NOs 3, 4 (Fab, V domains shown)
VH: QVQLVESGGGVVQPGGSLRLSCAASGFTFSTAGMHWVRQAPGKGLEWVAVIWYNGKEISYADSVKGRFTVSRDNPKNTLYLQMSSLRTEDTAVYYCARNRGDIYYDFTYAMDIWGQGTMVTVSS
VL: B1 VL
As to B3, the “IC50 (nM)” value is 35.1 nM.

B4: Fab SEQ ID NOs: 13, 10 (Fab, V domains shown)
VH: B1 VH
VL: DIQLTQSPSFLSASVGDRVTITCRASQGISTYLAWYQQKPGKAPKLLIYDASALQSGVPSRFSGSGSGTEFTLTISSLQPEDVATYYCQQFWSTPYTFGQGTKLEIK
In the case of B4, the “IC50 (nM)” value was determined as 25.5 nM.

B5: Fab SEQ ID NOs: 13, 37 (Fab, V domains shown)
VH: B1 VH
VL: B1 VL with S93G
For B5, the “IC50 (nM)” value came to 12 nM.

B6: Fab SEQ ID NOs: 5, 6 (Fab, V domains shown)
VH: B3 VH with G16R, A23T, T28S, T31S, A32Y
VL: B4 VL with D1A, D50A, A53S, E70D
Regarding B6, the “IC50 (nM)” value amounted to 50.2 nM.

B7: Fab SEQ ID NOs. 35. 36 (Fab, V domains shown)
VH: EVQLVESGGGVVQPGRSLRLSCAASGFTFSNYPMHWVRQAPGKGLEWVAVISYDGSEKWYADSVKGRFTISRDNSKNTLYLEMNSLRPEDTAVYYCARNRGDIYYDFTYAMDYWGQGTTVTVSS
VL: B2 VL with G93S
As for B7, the “IC50 (nM)” value is 61.4 nM.
